{"source": "patent EP4803139A2", "about": "(Amgen Inc., dated 2026)", "binders": {"B1": {"name": "11F1, anti-PCSK9 antibody (antibody, V domains shown)", "VH": "EVQLVESGGGLVQPGGSLRLSCAASGFTFSNYWMSWVRQAPGKGLEWVASIKQDGSEKYYVDSVKGRFAISRDNAKNSLFLQMNSLRAEDTAVYYCARDLVLMVYDIDYYYYGMDVWGQGTTVTVSS", "VL": "not shown"}}, "target": "T1, PCSK2 (R&D Systems) (UniProt P16519 26-638, limits assumed)", "T1 sequence (looked up)": "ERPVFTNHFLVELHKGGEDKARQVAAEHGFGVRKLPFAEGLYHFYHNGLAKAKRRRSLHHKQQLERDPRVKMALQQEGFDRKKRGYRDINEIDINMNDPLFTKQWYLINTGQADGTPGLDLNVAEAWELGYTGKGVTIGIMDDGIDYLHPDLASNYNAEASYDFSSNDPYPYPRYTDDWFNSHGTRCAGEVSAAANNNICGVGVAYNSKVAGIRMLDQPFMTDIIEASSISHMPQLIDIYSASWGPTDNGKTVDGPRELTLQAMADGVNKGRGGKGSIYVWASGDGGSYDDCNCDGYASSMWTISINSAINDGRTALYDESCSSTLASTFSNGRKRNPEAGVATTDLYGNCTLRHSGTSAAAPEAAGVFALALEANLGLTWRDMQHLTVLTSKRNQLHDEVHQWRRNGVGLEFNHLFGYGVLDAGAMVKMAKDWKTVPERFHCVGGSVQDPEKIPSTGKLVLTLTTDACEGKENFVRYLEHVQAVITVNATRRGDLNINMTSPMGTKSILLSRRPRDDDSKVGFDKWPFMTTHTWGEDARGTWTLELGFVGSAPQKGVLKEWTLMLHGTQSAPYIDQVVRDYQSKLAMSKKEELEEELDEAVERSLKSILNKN", "assay": "competition ELISA: 0.4 µg/mL 11F1 pre-incubated with the convertase in solution, then binding to plate-captured biotinylated PCSK9"}
{"binder": "B1", "values": [{"measurement": "binding result", "value": "no binding (tested: 0 to 20 µg/mL)"}]}
